Assay results: patent US7183377 (US Dept. of Health and Human Services, dated 2007)

Target: T1, Wingless (Wg), the Drosophila homolog of Wnt-1 (Drosophila, UniProt P09615 18-468)
T1 construct: mature; Used as unpurified conditioned medium in the ELISAs
T1 sequence (looked up): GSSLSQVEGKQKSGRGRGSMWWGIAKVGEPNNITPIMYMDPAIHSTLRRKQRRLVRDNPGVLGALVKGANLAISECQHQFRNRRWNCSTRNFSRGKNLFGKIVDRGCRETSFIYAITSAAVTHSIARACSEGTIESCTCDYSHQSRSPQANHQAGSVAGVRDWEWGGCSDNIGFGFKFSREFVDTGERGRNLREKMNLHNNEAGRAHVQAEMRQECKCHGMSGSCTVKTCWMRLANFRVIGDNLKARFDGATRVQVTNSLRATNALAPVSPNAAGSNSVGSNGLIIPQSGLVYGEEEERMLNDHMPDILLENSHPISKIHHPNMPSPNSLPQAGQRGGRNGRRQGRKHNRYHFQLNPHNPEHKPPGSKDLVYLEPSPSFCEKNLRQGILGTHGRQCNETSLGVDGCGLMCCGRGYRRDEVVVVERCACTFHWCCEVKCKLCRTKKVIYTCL
Assay: ELISA: FRP coated at 100 ng/well, Wg-containing S2 conditioned medium, detection with anti-Wg antibody
Source text: As an alternative, cell-free systems to study the binding of FRP and Wnts were developed. These systems have the advantage of simplicity, as the profile of endogenous Frizzled/FRP/Wnt expression would not be an issue. Moreover, experiments now can be performed with purified recombinant FRP. One model system disclosed in detail below makes use of an ELISA type of format. Microtiter wells are first coated with purified FRP, and then blocked with a large excess of bovine serum albumin (BSA). To minimize the problems associated with solubilizing Wnts, initial studies focused on studying FRP binding to Wingless (Wg) because an expression system is available that releases Wg into conditioned medium. Van Leeuwen, et al., Nature 368:342–344 (1994). Although expression of a heat shock-Wg construct in transfected S2 insect cells results in only a small fraction of recombinant Wg in the media, it is sufficient for binding studies and obviates the need for detergents or other agents to extract the protein from cell surfaces or extracellular matrix. […] After washing, the wells are sequentially incubated with antibody to Wg, secondary antiserum (against the Wg antibody) conjugated to alkaline phosphatase, and p-nitrophenol phosphate. […]
FIG. 13 illustrates the binding of FRP and Wg. […] Color development, monitored at 405 nm, was indicative of Wg binding in the well.

binding result: binds
B1: human Frizzled-related protein (FRP) (receptor)
chain: VGSASEYDYVSFQSDIGPYQSGRFYTKPPQCVDIPADLRLCHNVGYKKMVLPNLLEHETMAEVKQQASSWVPLLNKNCHAGTQVFLCSLFAPVCLDRPIYPCRWLCEAVRDSCEPVMQFFGFYWPEMLKCDKFPEGDVCIAMTPPNATEASKPQGTTVCPPCDNELKSEAIIEHLCASEFALRMKIKEVKKENGDKKIVPKKKKPLKLGPIKKKDLKKLVLYLKNGADCPCHQLDNLSHHFLIMGRKVKSQYLLTAIHKWDKKNKEFKNFMKKMKNHECPTFQSVFK
notes: The natural protein purified from M426 medium began 11 residues further downstream (residue 38), with a second N-terminus three residues later; The N-terminus of the recombinant protein is not reported; In the ELISAs it was untagged full-length FRP purified from the medium of MDCK cells transfected with pcDNA3.1(+); also called hFRP; recombinant FRP
